Here are results for 41 sequences from the nanobody polyreactivity screen of Harvey et al. (2022).

The nature of this data set: yeast display, Sf9 membrane polyspecificity reagent, FACS + sequencing; frameworks hold sequencing errors. The gist of the method:
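Galactose-induced (36–48 hours) yeast carrying a synthetic nanobody display library were exposed to 10% biotinylated, detergent-solubilized Sf9 membrane reagent at 4 °C for 1 hour. FACS followed streptavidin microbead enrichment, using low and high (top ~1%) gates for expression (anti-HA) and reagent binding (streptavidin). Colony PCR, MiSeq 2 × 250 sequencing and CDR-length filtering followed. Labels for polyreactivity reflect the gate of origin.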
“QVQLVESGGGLVQAGGSLRLSCAASGFIFYDYSMAWYRQAPGKEREFVAAISWSGGRTYYADSVKGRFTISRDNAKNTVYLQMNSLKPVDTAVYYCAVDAYRYWWTTYVSDFDYWGQGTQVTVSS”: the “polyreactivity (PSR sort gate)” value was “high polyreactivity”.
The same measure for “QVQLVESGGGLVQAGGSLRLSCAASGSIFSKNARGWYRQAPGKERELVAAISWSGDRTYYADSVKGRFTISRDNAKNTVYLQMNSLKPEDTAVYYCAADYTVKYGYWGQGTQVTVSS”: “high polyreactivity”; for “QVQLVESGGRLVQAGGRLRLSCAASGRTFPIYVMGWYRQAQGKERELVATIDSDGTTNYADSVKGRFTISRDNAKNTVSLQMNSLKPEDTAVYYCAADSGWWEYCEDYWGQGTQVTVSS”: “low polyreactivity”.
The same measure for “QVQLVESGGGLVQAGGSLRLSCAASGSIFQRNAMGWYRQAPGKERELVAAITYSGGGTYYADSVKGRFTISRDNAKNTVYLQMNSLKPEDTAVYYCAADYKSKYSGYIYDYWGQGTQVTVSS”: “low polyreactivity”; for “QVQLVESGGGLVQAGGSLRLSCAASGFIFLRYGMGWYRQAPGKARELVATISWSGDSTYADSVKGRFTISRDNAKNTLYLQMNSLKPEDTAVYYCATSGDWWGFRYDYWGQGTQVTVSS”: “low polyreactivity”; for “QVQLVESGGGLVQAGGSLRLSCAASGRTFSLYTMGWYRQAPWKERELVASITSSGSTSYADSVKGRFTISRDNAKNTVYLQMNSLKPEDTAVYYCNAAVSYPKYPYVSPGVPSYDYWGQGTQVTVSS”: “low polyreactivity”.
The result for “QVQLVESGGGLVQAGGSLRLSCAASGSIFESNGMGCYRQAPGKERELVASISNGDITYFADSVKGRFTISRDNAKNTVYLQMNSLKPEDTAVYYCAATLYRNYVIFRYDYSGQGTQVTVSS” reads “low polyreactivity”.
Consider “QVQLVESGGGLVQAGGSLRLSCAASGRIFGFYTMGWYRQAPGKERELVAVINRGGRTYYADSVKGRFTISRDNAKNTVYLQMNSLKPEDTAVYYCAADYYTQGAYRGMDYWGQGTQVTVSS”, for which the “polyreactivity (PSR sort gate)” value was “high polyreactivity”.
Turning to “QVQLVESGGGLVQAGGSLRLSCAASGFTFYQYAMGWYRQAPGKERELVAAISSSGTSTYYADSVKGRFTISRDNAKNTVYLQMNSLKPEDTAVYYCAARRYKLFYWGQGTQVTVSS”, the “polyreactivity (PSR sort gate)” value is “low polyreactivity”.
The result for “QVQLVESGGGLVQAGGSLRLSCAASGSTFYSYAMGWYRQAHGQERELVAAISYSGGSTYYADSVKGRFTISRDNAKNTVYLQMNSLKPADTAVYYCNARAVYPAGYAYDYWGQGTQVTVSS” reads “high polyreactivity”; that for “QVQLVESGGGLVQAGGSLRLSCAASGRTFYGYAMGWYRQAPGKERELVATISGSGASTYYADSVKGRFTISRDNAKNTVYLQMNSLKPEVTAVYYFAARYVTNRHSRYYYWGQGTQVTVSS”, “high polyreactivity”; that for “QVQLVESGGGLVQAGGSLRLSCAASGSIFWRYAMGWYRQAPGKERELVAAISSSGSTYYADSVKGRFTISRDNAKNTVYLQMNSLKPEDTAVYYCAKRASALLRHSYDYWGQGTQVSVSS”, “low polyreactivity”.
In the case of “QVQLVESGGGLVQAGGSLRLSCAASGSIFPANAMGWYRQAPGKERELVAAINRDGITNYADSVKGRFTISRDNAKNTVYLQMNSLKPEDTAVYYCAAEFAWQWWEYGYWGQGTQVTVSS”, the “polyreactivity (PSR sort gate)” value is reported as “low polyreactivity”.
For “QVQLEESGGCLVQAGGSLRLSCAASGFTFRSYAMGWYRQAPGKERELVAAISSGGSTYYADSVKGRFTISRDNAKITVYLKMNSLKPEDTAVYYCAARRYYGYGHWGQGTHVTVSS”, the “polyreactivity (PSR sort gate)” value was “high polyreactivity”.
The same measure for “QVQLVESGIGLVQAGGSLSLSCAASGFNLDTYGMGWYRQAPGKERELVAAISQSDVSTYYADSVKGRFTISRDNAKNTVYLQMNSLKPEDTAVYYCAADRGGLRWFWQVLYEYWGQGTQVTVSS”: “low polyreactivity”; for “QVQLVESGGGLVQAGGSLRLSCAASGSTFSHYTMGSYRQAAGKERELVAAITRSGGSTYYADSVKGRFTISRDNAKNTVYLQMNSLKTEDSAVYYSAATRHWNILRYDYWGQGTQVTVSS”: “low polyreactivity”.
The result for “QVQLVESGGGLVQAGGSLRLSCAASGSIFRGNVMGWYRQAPGKERELVAAISWSGGSTYYADSVKGRFTISRDNAKNTVYLQMNSLKPEDTAVYYCAVRVWGSARGMDYWGQGTQVTVSS” reads “high polyreactivity”; that for “QVQLVESGGGLVQAGGSLRLSCAASGNTFRLYGMGWYRQAPGKERELVAAIRSGDRTYYADSVKGRFTISRDNAKNTVYLQMNSLKPEDTAVYYCAARVNLSKLFGYWGQGTQVTVSS”, “high polyreactivity”; that for “QVQLVESGGGLVQAGGSLRLSCAASGSIFNPYVMGWYRQAPGKERELVAAISSSGGRTYYADSVKGRFTLSRDNAKNTVDFQMNSLKPEDTAVYYCAAKPRQGYDYWGQGTQVTVSS”, “high polyreactivity”.
The same measure for “QVQLVESGGGLVQAGGSLRLSCAASGFTFTGYAMGWYRQAPGKERELVAVISSRGGSTYYADSVKGRFTISRDNAKNTVYLQMNSLKPEDTAVYYCAARGSKGFSSPFGYWGQGTQVTVSS”: “high polyreactivity”; for “QVQLVESGGGLVQAGGSLRLSCAASGSTFLRYAMGWYRQAPGKERELVATITSGGSTYADSVKGRFTISRDNAKNTVYLQMNSLKPEDTAVYYCAARANTKKPYYYWGQGTQVTVSS”: “high polyreactivity”.
In the case of “QVQLVESGGGLVQAGGSLRLSCAASGRTFYGNAMGWYRQAPGKERELVAAINYSGGRTFYADSVKGRFTISRDNAKNTVYLQMNSLKPEDTAVYYCAAQDTYYGLFSYWIPWSGYWGQGTQVTVSS”, the “polyreactivity (PSR sort gate)” value is listed as “high polyreactivity”.
The same measure for “QVQLVESGGGLVQAGGSLRLSCAASGSTFNRYAMGWYRPAPGKDRELVAAISASGGSTYYADSVKGRFRISRDNAKNTVYLQMNSLKPEDTAVYYCATLHYVGQEHDYWGQGTQVTVSS”: “low polyreactivity”; for “QVQLVESGGGLVQAGGSLRLSCAASGSTFVANVMGWYRQAPGKERELVATINSTSGSTYYADSVKGRFTISRDNAKNTVYLQMNSLKPEDTAVYYCNATHEGFELDYWGQGTQVTVSS”: “low polyreactivity”.
“QVQLVESGGGLVQAGGSLRLICAASGSTFNIKAMGWYRQAPGKERELVAAISSRGGSTYYADSVKGRFTISRDNAKNTVYLQMNSLKPEDTAVYYCALAAGIPQRRYYYWGQGTQVTVSS”: the “polyreactivity (PSR sort gate)” value is reported as “high polyreactivity”.
The result for “QVQLVESGGGLVQAGGSLRLSCAASGRIFRGYAMGWYRQAPGKERELVAAISASGGSTYYADSVKGRFTISRDNAKNTVYLQMNSLKPEDTAVYYCATTIFYTYYGLYDYWGQGTQVTVSS” reads “high polyreactivity”; that for “QVQRVESGGGLVQAGGSLRLTSAASGSTFGTNAMGWYRQAPGTERELVATISKSGGSTYYADSVKGRFTISRDNAKNTVYLQMNSLKPEANAVYYCARRYRDYGRYGYWGQGTEVTVSS”, “high polyreactivity”.
As for “QVQLVESGGGLVQAGGSLRLSCAASGYIFGYYTMGWYRQAPGKERELVATIRSGGSTYYADSVKGRFTISRDNAKNTVYLQMNSLKPEDTAVYYWAKRVRRISEYGYWGQGTQVTVSS”, the “polyreactivity (PSR sort gate)” value was “high polyreactivity”.
On to “QGQLVESGGGLVQAGGSLRLSCAASGRTFYRYAMGWYRQAPGNERELVASMNRGGSTYYADSVKGRFTFSRDNAKNTVYLQMNSLKPEDTAVYYCACYCYCYRGQGTQVTVSS”, for which the “polyreactivity (PSR sort gate)” value is given as “low polyreactivity”.
The result for “QVQLVESGGGLVQAGGSLRLSCAASGSTLGVYAMGWYRQAPGTERELVAAISSGGSTTYADSVKGRFTISRDNEKNTVYLQMNSLKPEDTAVYYCAADRYEGYVTWYWWGAYNYDYWGQGTQVTVSS” reads “high polyreactivity”; that for “QVQLVESGGGLVQAGGSLRLSCAASGRTFAVYAMGWYRQATGKERELVAAISSGGSTYYADSVKGRFTISRDNAKNTVYLQMNSLKPEDTAVYYCTARWGYRRGYCGQGTQVTVSS”, “high polyreactivity”.
For “QVQLVESGGGLVQAGGSLRLTCPASGTIFWNYAMGWYRQAPGKERELVAAISFSGGSTYYADSVKGRFTISRDNAKNTVYLQMNSLKPEDTAVYYCNADYSYVGEYDYWGQGTQVTLSS”, the “polyreactivity (PSR sort gate)” value is “low polyreactivity”.
The result for “QVHLVESGGGLVQAGGSLRLSCAASGYTIRRNAMGWYRQAPGKERELVAAITSGGSTDYADSVKGRFTISRDNAKNTVYLQMISLKPEDTAVYYCAADGIYRGAWSTVYESPGYDYWGQGTQVTVSS” reads “low polyreactivity”; that for “QVQLVESGGGLVQAGGSLRLSCAASGFIFQYNTMGWYRQAPGKERELVAVITRTGSTNYADSVKGRFTISRDNGKNTVYLQMNSLQPEDTAVYYCATSVYSRPRKPRYYYWGQGTQVTVSS”, “high polyreactivity”.
Regarding “HVQLVESGGGLVQAGGSLRLSCAASGSTFYRNAMGWYREAPGKEWEFVADITLGGGSTYYADSVKGRFTISRDNAKNTVYLQMNSLKPEDTAVYYCAVDYWQLNYDYWGQGTQVTVSS”, the “polyreactivity (PSR sort gate)” value is recorded as “low polyreactivity”.
The same measure for “QVQLVESVGGLVQEGGSLRLRCAASGSTFNKYTMGWYRQAPGKERELVAAISLRGGSTYYADSVKGRFTISRDNAKNTVYLQMNSLKPEDTAVYYCNADATHDWLRVDTYEYWGHGTQVTVSS”: “low polyreactivity”; for “QVQLVESGGALVQAGGSLRLSCAASGGIFSYYAMGWYRQAPGKERELVAAMSWSGTSTYYADSVKGRFTISRDNAKNTVYLQMNSLNQEDTAVYYCNKVTYSRAQYIGGDGYFWGEGTQVTVSS”: “high polyreactivity”.
The same measure for “QVQLVESGGGLVQAGGSLRLSCAPSGFIFTPYTMGGYRQAPGKERELVAAITDGSSTYYADSVKGRFTISRDNAKNTVYVQMNSLKPEDTAVYYCNADGKPPYISWLYDYWGQGTQVTVST”: “low polyreactivity”.
The same measure for “QVQLVESGGGLVQAGGSLRLICAASGYIFTYNAMGWYRQAPGKERELVAAISSGDGRTYYADSVKGRFTISRDNAKNTVYLQMNSLTPEDTAVYYCNATRVVYRQAYLYGYDYWGQGTQVTVSS”: “low polyreactivity”; for “QVQLVESGGGLVQAGGSLRLSCAASGRIFTRNTMGWYRQAPGKERELVAAITSRGGSTYYADSVKGRFTISRDNAKITVYLQMNSLKPEETAVYYCAADIPRYYYYWGQGTQVTVSS”: “high polyreactivity”; for “QVQLVESGGGLVQAGGSLRLSCAASGRIFGKYAMGWYRQAPGKERELVAANSRSCASTYYADSVKGRFTISRDNAKNTVYLQMNSLKPEDTAVYYCAAVPPYNYRFRVDYWGQGTQVTVSS”: “high polyreactivity”.
